{
  "source": "patent US20260000781A1",
  "about": "“FC CONJUGATES INCLUDING AN INHIBITOR OF CD73 AND USES THEREOF” (Cidara Therapeutics, Inc., priority 2022, published 2026)",
  "key": {"[1]": {"target": "T1, human CD73 expressed on cells (human) (UniProt P21589)", "T1 sequence (looked up)": "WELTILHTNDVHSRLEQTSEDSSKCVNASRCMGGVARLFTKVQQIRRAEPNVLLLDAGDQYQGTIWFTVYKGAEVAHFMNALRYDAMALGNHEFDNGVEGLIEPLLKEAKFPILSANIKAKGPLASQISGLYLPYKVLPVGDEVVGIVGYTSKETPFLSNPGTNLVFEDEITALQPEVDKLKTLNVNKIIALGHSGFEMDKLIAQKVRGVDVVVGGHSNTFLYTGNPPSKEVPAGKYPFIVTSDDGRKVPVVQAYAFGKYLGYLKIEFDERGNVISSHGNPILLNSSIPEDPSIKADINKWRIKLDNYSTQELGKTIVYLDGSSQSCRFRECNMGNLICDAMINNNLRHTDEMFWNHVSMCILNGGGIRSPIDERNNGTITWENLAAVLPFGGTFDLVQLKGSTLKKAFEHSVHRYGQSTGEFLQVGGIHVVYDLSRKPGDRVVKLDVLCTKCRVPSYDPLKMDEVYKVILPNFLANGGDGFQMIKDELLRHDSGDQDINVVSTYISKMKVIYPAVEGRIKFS", "test": "cell-based or functional assay"}, "[2]": {"target": "T1, human CD73 expressed on cells (human)", "test": "cell-based or functional assay", "remark": "listed apart in the source"}, "[3]": {"target": "T2, recombinant human CD73 enzyme (human) (UniProt P21589)", "T2 sequence (looked up)": "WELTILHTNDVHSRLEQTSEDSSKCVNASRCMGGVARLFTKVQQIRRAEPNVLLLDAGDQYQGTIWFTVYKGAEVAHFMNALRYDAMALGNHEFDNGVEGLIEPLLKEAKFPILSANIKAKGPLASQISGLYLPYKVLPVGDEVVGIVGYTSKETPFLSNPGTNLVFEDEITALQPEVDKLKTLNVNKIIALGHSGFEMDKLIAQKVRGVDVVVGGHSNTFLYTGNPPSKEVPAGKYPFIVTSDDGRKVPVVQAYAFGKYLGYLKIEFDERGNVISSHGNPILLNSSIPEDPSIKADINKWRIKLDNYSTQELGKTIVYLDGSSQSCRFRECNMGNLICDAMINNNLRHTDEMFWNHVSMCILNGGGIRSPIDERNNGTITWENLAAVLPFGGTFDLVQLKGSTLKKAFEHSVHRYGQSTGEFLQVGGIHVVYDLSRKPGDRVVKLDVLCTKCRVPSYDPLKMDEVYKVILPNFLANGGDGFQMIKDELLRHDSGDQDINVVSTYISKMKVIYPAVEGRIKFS", "test": "cell-based or functional assay"}, "[4]": {"target": "T1, human CD73 expressed on cells (human)", "test": "cell-based or functional assay", "remark": "listed apart in the source"}, "[5]": {"target": "T1, human CD73 expressed on cells (human)", "test": "flow cytometry, MDA-MB-231 cells, anti-human Fc detection, gMFI"}, "[6]": {"target": "T1, human CD73 expressed on cells (human)", "test": "flow cytometry, MDA-MB-231 cells, anti-human Fc detection, gMFI; no AMP"}, "[7]": {"target": "T1, human CD73 expressed on cells (human)", "test": "flow cytometry, MDA-MB-231 cells, anti-human Fc detection, gMFI; 0 µM AMP"}, "[8]": {"target": "T1, human CD73 expressed on cells (human)", "test": "flow cytometry, MDA-MB-231 cells, anti-human Fc detection, gMFI; 0 nM AB680"}, "[9]": {"target": "T1, human CD73 expressed on cells (human)", "test": "flow cytometry, MDA-MB-231 cells, PE anti-human Fc detection, % labelled cells"}, "[10]": {"target": "T1, human CD73 expressed on cells (human)", "test": "flow cytometry, MDA-MB-231 cells, anti-human Fc detection, gMFI; with 10 µM AMP"}, "[11]": {"target": "T1, human CD73 expressed on cells (human)", "test": "flow cytometry, MDA-MB-231 cells, anti-human Fc detection, gMFI; with 10 µM AMP", "remark": "listed apart in the source"}, "[12]": {"target": "T1, human CD73 expressed on cells (human)", "test": "flow cytometry, MDA-MB-231 cells, anti-human Fc detection, gMFI; with 100 µM AMP"}, "[13]": {"target": "T1, human CD73 expressed on cells (human)", "test": "flow cytometry, MDA-MB-231 cells, anti-human Fc detection, gMFI; with 1 nM AB680"}, "[14]": {"target": "T1, human CD73 expressed on cells (human)", "test": "flow cytometry, MDA-MB-231 cells, anti-human Fc detection, gMFI; with 100 µM AMP", "remark": "listed apart in the source"}, "[15]": {"target": "T1, human CD73 expressed on cells (human)", "test": "flow cytometry, MDA-MB-231 cells, anti-human Fc detection, gMFI; with 1 nM AB680", "remark": "listed apart in the source"}, "[16]": {"target": "T1, human CD73 expressed on cells (human)", "test": "flow cytometry, MDA-MB-231 cells, anti-human Fc detection, gMFI; with 10 nM AB680"}, "[17]": {"target": "T1, human CD73 expressed on cells (human)", "test": "flow cytometry, MDA-MB-231 cells, anti-human Fc detection, gMFI; with 10 nM AB680", "remark": "listed apart in the source"}, "[18]": {"target": "T1, human CD73 expressed on cells (human)", "test": "flow cytometry, MDA-MB-231 cells, anti-human Fc detection, gMFI; with 1,000 µM AMP"}, "[19]": {"target": "T1, human CD73 expressed on cells (human)", "test": "flow cytometry, MDA-MB-231 cells, anti-human Fc detection, gMFI; with 100 nM AB680"}, "[20]": {"target": "T1, human CD73 expressed on cells (human)", "test": "flow cytometry, MDA-MB-231 cells, anti-human Fc detection, gMFI; with 1,000 µM AMP", "remark": "listed apart in the source"}, "[21]": {"target": "T1, human CD73 expressed on cells (human)", "test": "flow cytometry, MDA-MB-231 cells, anti-human Fc detection, gMFI; with 100 nM AB680", "remark": "listed apart in the source"}, "[22]": {"target": "T1, human CD73 expressed on cells (human)", "test": "flow cytometry, MDA-MB-231 cells, anti-human Fc detection, gMFI; no AB680 (column headed No AMP)"}},
  "note": "Like-named read-outs stand apart in the source and are kept apart here.",
  "data": [
    {"binder": "Mupadolimab (antibody, INN chains, looked up, V domains shown) VH: QVQLVQSGAEVEKPGASVKVSCKASGYTFTSYWITWVRQAPGQGLEWMGDIYPGSGNTNYNEKFKTRVTITADKSTSTAYMELSSLRSEDTAVYYCAKEGGLTTEDYALDYWGQGTLVTVSS VL: EIVLTQSPATLSLSPGERATLSCRASKNVSTSGYSYMHWYQQKPGQAPRLLIYLASNLESGIPPRFSGSGYGTDFTLTINNIESEDAAYYFCQHSRELPFTFGQGTKVEIK", "values": [
      {"measurement": "Cell internalization EC50 (nM), Fab-ZAP saporin assay, MDA-MB-231", "setting": "[1]", "result": 0.06, "unit": "nM"},
      {"measurement": "% CD73 receptor internalization, MDA-MB-231", "setting": "[2]", "result": "> 70", "unit": "%"},
      {"measurement": "CD73 inhibition, human PBMCs, 3 h IC50 [nM]", "setting": "[2]", "result": 2.85, "unit": "nM"},
      {"measurement": "CD73 inhibition, human PBMCs, 3 h median IC50 [nM]", "setting": "[2]", "result": 9.27, "unit": "nM"},
      {"measurement": "CD73 inhibition, human PBMCs, 24 h IC50 [nM]", "setting": "[2]", "result": 44.2, "unit": "nM"},
      {"measurement": "CD73 inhibition, human PBMCs, 24 h median IC50 [nM]", "setting": "[2]", "result": 29.9, "unit": "nM"},
      {"measurement": "Cell internalization EC50 (nM), Fab-ZAP saporin assay, MDA-MB-231", "setting": "[2]", "result": 0.055, "unit": "nM"},
      {"measurement": "Cell-based CD73 inhibition IC50 (nM), MDA-MB-231 cells", "setting": "[2]", "result": 3.82, "unit": "nM"},
      {"measurement": "PBMC activation (CD25+), 30 µM AMP EC50 [nM]", "setting": "[2]", "result": 576, "unit": "nM"},
      {"measurement": "PBMC activation, CD4+CD25+ EC50 [nM] (median, n = 3)", "setting": "[2]", "result": 28, "unit": "nM"},
      {"measurement": "PBMC activation, CD8+CD25+ EC50 [nM]", "setting": "[2]", "result": 932, "unit": "nM"},
      {"measurement": "PBMC activation, CD8+CD25+ EC50 [nM] (median, n = 3)", "setting": "[2]", "result": 84, "unit": "nM"},
      {"measurement": "PBMC activation, CD8+Granzyme B+ EC50 [nM] (median, n = 3)", "setting": "[2]", "result": 83, "unit": "nM"},
      {"measurement": "PBMC activation, CD8+granzyme B+ EC50 [nM]", "setting": "[2]", "result": 63.1, "unit": "nM"},
      {"measurement": "cell-based CD73 enzyme inhibition IC50 (MDA-MB-231 cells)", "setting": "[2]", "result": 1.16, "unit": "nM"},
      {"measurement": "inhibition of adenosine production (AMP conversion by CellTiter-Glo), human PBMCs, EC50 [nM]", "setting": "[2]", "result": 10, "unit": "nM"},
      {"measurement": "Cell free CD73 inhibition IC50", "setting": "[3]", "result": "> 100", "unit": "nM"},
      {"measurement": "% CD73 receptor internalization, MDA-MB-231", "setting": "[4]", "result": "> 60", "unit": "%"},
      {"measurement": "fold reduction of binding at high AMP concentration", "setting": "[5]", "result": 2, "unit": "fold"},
      {"measurement": "IC50", "setting": "[6]", "result": 0.025, "unit": "nM"},
      {"measurement": "IC50", "setting": "[7]", "result": 0.1, "unit": "nM"},
      {"measurement": "IC50", "setting": "[8]", "result": 0.1, "unit": "nM"},
      {"measurement": "EC50", "setting": "[9]", "result": 1.25, "unit": "nM"},
      {"measurement": "IC50", "setting": "[10]", "result": 0.048, "unit": "nM"},
      {"measurement": "IC50", "setting": "[11]", "result": 0.12, "unit": "nM"},
      {"measurement": "IC50", "setting": "[12]", "result": 0.12, "unit": "nM"},
      {"measurement": "IC50", "setting": "[13]", "result": 1.39, "unit": "nM"},
      {"measurement": "IC50", "setting": "[14]", "result": 0.16, "unit": "nM"},
      {"measurement": "IC50", "setting": "[15]", "result": 0.88, "unit": "nM"},
      {"measurement": "IC50", "setting": "[16]", "result": 2.59, "unit": "nM"},
      {"measurement": "IC50", "setting": "[17]", "result": 1.54, "unit": "nM"},
      {"measurement": "IC50", "setting": "[18]", "result": 0.14, "unit": "nM"},
      {"measurement": "IC50", "setting": "[19]", "result": 8.48, "unit": "nM"},
      {"measurement": "IC50", "setting": "[20]", "result": 0.2, "unit": "nM"},
      {"measurement": "IC50", "setting": "[21]", "result": 4.19, "unit": "nM"},
      {"measurement": "IC50", "setting": "[22]", "result": 0.09, "unit": "nM"}
    ]}
  ]
}
